According to PMC10616141:
Positions count from the first letter of the chain named.

Target: Orai1-CFP, Q96D31
Test: E-FRET in cells (Orai1-CFP / STIM1-YFP)
Details: chain shown with the change, HEK-S1S2dKO-O1CFP cells, store-depletion with 2.5 µM ionomycin, parent: est. 0.11, read off a plot

Sequence of Orai1-CFP, Q96D31 (Q96D31 whole entry): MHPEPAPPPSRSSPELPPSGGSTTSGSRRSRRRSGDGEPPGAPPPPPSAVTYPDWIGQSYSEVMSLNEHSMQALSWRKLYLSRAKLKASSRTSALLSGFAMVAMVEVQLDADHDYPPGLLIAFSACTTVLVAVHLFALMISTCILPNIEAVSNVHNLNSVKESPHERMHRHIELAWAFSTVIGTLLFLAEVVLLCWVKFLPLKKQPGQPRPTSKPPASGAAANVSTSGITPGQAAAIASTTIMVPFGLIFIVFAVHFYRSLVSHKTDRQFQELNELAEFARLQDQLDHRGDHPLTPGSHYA

B1: STIM1-YFP-WT, Q13586 F394del (protein)
chain: LSHSHSEKATGTSSGANSEESTAAEFCRIDKPLCHSEDEKLSFEAVRNIHKLMDDDANGDVDVEESDEFLREDLNYHDPTVKHSTFHGEDKLISVEDLWKAWKSSEVYNWTVDEVVQWLITYVELPQYEETFRKLQLSGHAMPRLAVTNTTMTGTVLKMTDRSHRQKLQLKALDTVLFGPPLLTRHNHLKDFMLVVSIVIGVGGCWFAYIQNRYSKEHMKKMMKDLEGLHRAEQSLHDLQERLHKAQEEHRTVEVEKVHLEKKLRDEINLAKQEAQRLKELREGTENERSRQKYAEEELEQVREALRKAEKELESHSSWYAPEALQKWLQLTHEVEVQYYNIKKQNAEKQLLVAKEGAEKIKKKRNTLFGTHVAHSSSLDDVDHKILTAKQALSEVTAALRERLHRWQQIEILCGFQIVNNPGIHSLVAALNIDPSWMGSTRPNPAHFIMTDDVDDMDEEIVSPLSMQSPSLQSSVRQRLTEPQHGLGSQRDLTHSDSESSLHMSDRQRVAPKPPQMSRAADEALNAMTSNGSHRLIEGVHPGSLVEKLPDSPALAKKALLALNHGLDKAHSLMELSPSAPPGGSPHLDSSRSHSPSSPDPDTPSPVGDSRALQASRNTRIPHLAGKKAVAEEDNGSIGEETDSSPGRKKFPLKIFKKPLKK
- response (n = 106 (WT n = 579)): 0.003

B2: STIM1-YFP-WT, Q13586 H395del (protein)
chain: B1 chain with H372F
- response (n = 207 (WT n = 579)): 0.082

B3: STIM1-YFP-WT, Q13586 H398del (protein)
chain: B1 chain with H372F, V373H, A374V, H375A
- response (n = 100 (WT n = 579)): 0.07

B4: STIM1-YFP-WT, Q13586 H395del; V396del (protein)
chain: LSHSHSEKATGTSSGANSEESTAAEFCRIDKPLCHSEDEKLSFEAVRNIHKLMDDDANGDVDVEESDEFLREDLNYHDPTVKHSTFHGEDKLISVEDLWKAWKSSEVYNWTVDEVVQWLITYVELPQYEETFRKLQLSGHAMPRLAVTNTTMTGTVLKMTDRSHRQKLQLKALDTVLFGPPLLTRHNHLKDFMLVVSIVIGVGGCWFAYIQNRYSKEHMKKMMKDLEGLHRAEQSLHDLQERLHKAQEEHRTVEVEKVHLEKKLRDEINLAKQEAQRLKELREGTENERSRQKYAEEELEQVREALRKAEKELESHSSWYAPEALQKWLQLTHEVEVQYYNIKKQNAEKQLLVAKEGAEKIKKKRNTLFGTFAHSSSLDDVDHKILTAKQALSEVTAALRERLHRWQQIEILCGFQIVNNPGIHSLVAALNIDPSWMGSTRPNPAHFIMTDDVDDMDEEIVSPLSMQSPSLQSSVRQRLTEPQHGLGSQRDLTHSDSESSLHMSDRQRVAPKPPQMSRAADEALNAMTSNGSHRLIEGVHPGSLVEKLPDSPALAKKALLALNHGLDKAHSLMELSPSAPPGGSPHLDSSRSHSPSSPDPDTPSPVGDSRALQASRNTRIPHLAGKKAVAEEDNGSIGEETDSSPGRKKFPLKIFKKPLKK
- response (n = 87 (WT n = 579)): 0.074

B5: STIM1-YFP-WT, Q13586 V396del; A397del (protein)
chain: B4 chain with A373H
- response (n = 107 (WT n = 579)): 0.034
